Test results published in a protein production outcome set (Wang et al. 2014).

Experiment: label from the status in PepcDB records

Row | Sequence | protein production
1 | MKRLAKTTLMTAMVAMVSFSIYAQTGRDIAQRVKDRPDGDTRRSELTMKLINKRGAVRERKLISYSIDMGKDKKDKKTIMFFLYPGDVKGTGFLTWDYDQIGKDDDKWLYLPAMKKTRRISGASAKKDYFMGSDFTYDDMGSRNVDEDTHKLLGEETFDGHKCWKLESTSKDQRDVFSKKIAWIRQDCLIPVRVEYYDRMNRLHRLLELSDIAQVDGFWMAQKMNMSNVQTGHRTVLEIKKPEFNRPIDESKFTVTSLEKGSL | not failed
2 | MAYNPKILQKPKEGEEITIKDNKLHVPNHPIIPFIEGDGIGSDITPAMIKVVDSAVQKAYKGEKKIAWYEVFVGEKCYQKFKDYKELSPEEQWLLPDTIEAINHYKVSIKGPLTTPIGEGFRSLNVALRQKMDLYVCLRPVRWYGSPSPVKEPQKVDMVIFRENSEDIYAGIEWQEGSAEAKKLIHFLQNELKVKKIRFPESSGIGVKPISKEGTERLVRKAIEYAIDNDKPSVTFVHKGNIMKYTEGAFMKWGYALAQKEFNAQVIDKGPWCSLKNPKNGKEIIIKDMIADAFLQQILLRPSEYSVIATMNLNGDYISDALAAMVGGIGIAPGANLNDTVGMFEATHGTAPKYAGLDKVNPGSIILSAEMMLRHMGWVEAADLIVSAMEKAIKSKKVTYDFARLMDGAKEVKCSEFASVMIENM | failed
3 | MAYVLTETSAGYALLKASDKKIYKSSSLIQDLDSSDKVLKEFKIAAFSKFNSAANALEEANSIIEGKVSSQLEKLLEEIKKDKKSTLIVSETKLANAINKLGLNFNVVSDAVTLDIYRAIKEYLPELLPGMSDNDLSKMSLGLAHSIGRHKLKFSADKVDVMIIQAIALLDDLDKELNTYAMRCKEWYGWHFPELAKIVTDSVAYARIILTMGIRSKASETDLSEILPEEIEERVKTAAEVSMGTEITQTDLDNINALAEQIVEFAAYREQLSNYLSARMKAIAPNLTQLVGELVGARLIAHSGSLISLAKSPASTIQILGAEKALFRALKTKHDTPKYGLLYHASLVGQATGKNKGKIARVLAAKAAVSLRYDALAEDRDDSGDIGLESRAKVENRLSQLEGRDLRTTPKVVREAKKVEMTEARAYNADADTAKAASDSESDSDDEEEEKKEKKEKKRKRDDDEDSKDSKKAKKEKKDKKEKKEKKEKKEKKEKKEKKEKKSKKEKKEKK | failed
4 | MIDTLKNIKVKDVMTKNVITAKRHEGVVEAFEKMLKYKISSLPVIDDENKVIGIVTTTDIGYNLIRDKYTLETTIGDVMTKDVITIHEDASILEAIKKMDISGKKEEIINQLPVVDKNNKLVGIISDGDIIRTISKII | not failed
5 | MSLGVTMHDVAKAAGVSAITVSRVLNQPQQVSEQLREKVMQAVDALAYVPSRSASTLASAKSRTVLVLIPSLANTVFLETLTGIETVLDAAGYQMLIGNSHYDAGQELQLLRAYLQHRPDGVLITGLSHAEPFERILSQHALPVVYMMDLADDGRCCVGFSQEDAGAAITRHLLSRGKRRIGFLGAQLDERVMKRLDGYRAALDAADCRDAGLEWLDPQPSSMQMGADMLDRALAERPDCDALFCCNDDLAIGALARSQQLGIAVPERLAIAGFNDLQPAAWCTPPLTTVATPRRDIGVHAAKALLQLIDGEEPASRRADLGFRLMLRRSSEGHHHHHH | not failed
6 | MNPFQNSFGGHIPQDVAGKQGENVIFIVYNLTDSPDTVDKVKDVCANFSAMIRSMRNRFPDMQFSCTMGFGADAWTRLFPDKGKPKELSTFSEIKGEKYTAVSTPGDLLFHIRAKQMGLCFEFASILDEKLKGAVVSVDETHGFRYMDGKAIIGFVDGTENPAVDENPYHFAVIGEEDADFAGGSYVFVQKYIHDMVAWNALPVEQQEKVIGRHKFNDVELSDEEKPGNAHNAVTNIGDDLKIVRANMPFANTSKGEYGTYFIGYASTFSTTRRMLENMFIGSPAGNTDRLLDFSTAITGTLFFVPSYDLLGELGE | not failed
7 | MSASPQAPTPPDRSSPSVSSNLGAEGAGGRRLCGSVVLSAGKILSVDKTLWQALGLSAESLSGLPFLSFLEDPSREVLAARLRLAGPPWDLRTALRVDGRAIPVVLRGDGAADRTTDTPLQVILITLAPQEGEVEPVSQSALFDHIPLGVMLSDGLGRIAYANPAFLAEDIAAVRALLGATPQALATGYLHEGLARTLWEDLLCGRVWRNDVDLPTADGQRTHSRLTIIPLRRDDGAVDRLMTVIEPRSPATDSQAWQQVNHDTLTGLPNRVLFQDRLLTALASARRRNDQLAVLFVDLDHFKTVNDSLGHSFGDQLLQQVATRLSQCLRDSDTLARMGGDEFTIALTGDGHQRDYAMIANRILETLRRPFTLEGGHEVLIGSSIGITLFPNDAEDVDTLLRNADTAMYRAKASGRNAFQFFTEEMNREIQSHLDLENALRRAVRAMDLTIHYQPVVDSATLAVVSAEALVRWPLADKGFIPPSRFIPVAEELGLIDEIGGWVLWNACTQAKVWQAQGAKAFRVSVNVSWRQLRNPDFALRVREALEGTGLGAAFLELEITEGMVLRDPQGIAPALMALSEMGVALAIDNFGSGHSSIKCLRQFPFSILKLDRSCVADVLTSHEDAVLVETAAIMARRLGLTVVAEGVETHAQLEFLREHYCDLIQGYLFGRPLPPEDFARML | failed
8 | MLHFAHIFQNKVHTMNITKPFPLPTGYFGIPLGLAALSLAWFHLENLFPAARMVSDVLGIVASAVWILFILMYAYKLRYYFEEVRAEYHSPVRFSFIALIPITTMLVGDILYRWNPLIAEVLIWIGTIGQLLFSTLRVSELWQGGVFEQKSTHPSFYLPAVAANFTSASSLALLGYHDLGYLFFGAGMIAWIIFEPVLLQHLRISSLEPQFRATMGIVLAPAFVCVSAYLSINHGEVDTLAKILWGYGFLQLFFLLRLFPWIVEKGLNIGLWAFSFGLASMANSATAFYHGNVLQGVSIFAFVFSNVMIGLLVLMTIYKLTKGQFFLK | not failed
9 | GAPLKAVSAFAPPMKTQDFNLYTNEVHAKFDDYDLGMEYARQHNKPVMLDFTGYGCVNCRKMELAVWTDPKVSSIINNDYVLITLYVDNKTPLTEPVKIMENGTERTLRTVGDKWSYLQRVKFGANAQPFYVLIDNEGNPLNKSYAYDEDISKYINFLQTGLENYRKEK | not failed
10 | MRSIRLRVDWRATASLLGTVLKYLAVALLVPLTVAVIYWEDIWVFAVAIAITVTLGFTLERLDPEPDMGPAEALLLVTVSWLAVAMVGSVPYLLAGYGTASTLANPVNALFESMSGFTTTGATVMGEISTDQHSHALLLWRQLTQWLGGMGIIVLMIAILPELAVNGAQLMKTEAPGPELQKLTPRIAETARVLWLVYFGFTVLLAALLYGLHLAGFAPNMHLYNAVAHAFTTLPTGGFSPESDSIAAFSAVVQWVIIPFMVIAGTNFALFWHLLDGDIRTLLNDAEFRVYAGAIAVLSAILAALLYGGAAPAQELGGTTAGNTENALRQAAFQVGSLMNSTGFATSDFAQWGPTAQALLLFTMFVGGSAGSTGGGIKVIRWLVVMKAIRRELSVTARPEAVKPVRLGGYVVDEDVVRGIMVFTLLYLALFGAATVFFAVDSLRVGYELSVLEAMSASIATLGNIGPGFGMLGPFGSYLGFPPETKIVMVFLMWVGRLEIIPVLAVFTGAFWKR | failed
11 | MGEKELIRVGVVGTGYMGENHVRIYSEMEDVRLIGISDPNSSRVKELAARYETLPFSDHKKMFGKTNLDAISIAAPTTLHCPIVLDALEAGVDVLVEKPIADSVENATAMIESAEEMDRHLMVGHIERFNPAVLKLKEVVDSGVLGKIVSV | failed
12 | MPGIDIVIVNWNSGNQLRECLRSIGNLVGEAEPLTVTVVDNASCDGSADGLPEPSCPLRVIRNRANLGFGRASNLGAREGSADYLLFLNPDTRLHPGALSIPLGFMESETGRHVGICGVQCLDETGGVARCCARFPTAWRLVGQALGLDRLFPRWIPPHFLGEWPHDSDRDVDQVIGAFFFVRRAVFEQLGGFDERFFVYYEDLDFALRARRAGWGSRYLAGARIFHRGGGVSRQISARRLHYLTHSKLRYARKHFAGIDAFLVSAAVLLLEPLARSAYALGRGRPGEFADTWKAFGGLYASLCRPGENGRLEHHHHHH | failed
13 | MEENKPVFSIITVCYCARDIIAKTAHSVLSQTYPNIEYIVVDGASPDNTAEVVRSLSSDIRLISEPDKGLYDAMNKGLRMALGDYVWFLNAGDLLPSDDLVEAIANGIKSSPMGLPDVLYGDTMLIDATGKEKGLRRLRPPFELQWRSFADGMLVCHQAFIAKRLIAPPYNMKYRFSADFDWCIRILQAARNIVNTEMILVHSLDDRGGITYKNHKASLKERFLIMKHYYGSRKSIMKHLSFFFRRKR | failed
14 | MKIVAITSCPNGIAHTYMAQEKLEQVAKEMGVDIKVETQGGVGAENVLTTQDIEEADGVIIAADKQVDLSRFVGKRLINENVREGIHNPRGLIQRIINQDAPIY | not failed
15 | MVFIDNLGLMLFILPLVSVLIAYTTVQAFIGFRKTGYEAIKRSLDDSILPAAILGTIIIILSLWGEFSWTLPGSYNILFYDVYLLLGITILSYSVTVYMGKRLQSTGIFALFVGLITIYYGASGYNLGLTKEPLALLALYTTYGIAGILGYPVTLALDRLRDQQGVKDPKLEGWMYAFFILFWIFVIIAGIIGAFIAVETIPAHLAHPP | failed
16 | MATIEKRGSSYRARVTIYQHGKRDYLTKTFKTENEAKVWGTTLELEKAKGKAIAHQNTLFKDFYYLYVHTIKVNDVRKATFNNYLKAGLVINNLFPTAKLGKLDDVQMQKILDKYGETHSKKTVVELLKKIRTALRYAYAKGYIYNDFASLLKAHGKELPKRNKALSMSDLTKLKHYLLEHTDDEFNLMVLLEISTGLRRGEILGIKPEDVHYDGQYYCVEVRRSISPTTDDTKLKTKHSRRSVTIPKDVYDLLKTIPSKASGYLFDWFSFKQSELLKKLLKKIGIPSTTFHGLRDTHASFLFSNNIPLSYVSRRLGHDSILTTEKYYLELMPEKKHSQDANALNLLASL | failed
17 | MSLKDVSLSSFDAHDLDLDKFPEVVRDRLTQFLDAQELTIADIGAPVTDAVAHLRSFVLNGGKRIRPLYAWAGFLAAQGHKNSSEKLESVLDAAASLEFIQACALIHDDIIDSSDTRRGAPTVHRAVEADHRANNFEGDPEHFGVSVSILAGDMALVWAEDMLQDSGLSAEALARTRDAWRGMRTEVIGGQLLDIYLESHANESVELADSVNRFKTAAYTIARPLHLGASIAGGSPQLIDALLHYGHDIGIAFQLRDDLLGVFGDPAITGKPAGDDIREGKRTVLLALALQRADKQSPEAATAIRAGVGKVTSPEDIAVITEHIRATGAEEEVEQRISQLTESGLAHLDDVDIPDEVRAQLRALAIRSTERREGHHHHHH | not failed
18 | MLDRVIYSLIQTENKSVVNELFFRIAEGEDSFAELARKYSQGAEADRGGIIGPVELGSITPNFAQLLYTSQVGVVQPPVAFGNTWVIVRVEKLIPAQLEHHHHHH | failed
19 | MGAAKPIFVEHSIVIDRPAQQVYDYWRKLENLPQIMSHLESVTVLDDKRSRWVAKAPLGTHVEWEAEVVNDKPGERIGWHSLPGATVDNAGSVQFESLPDDKTRVHVALSYRPPAGPLGAAVAKLFGEEPSQQIAEDLQKFKATFEGLEHHHHHH | failed
